Values joined by “and” are separate entries in the source; they are usually repeats but may differ in a detail not shown here. Equal values may be shown once.
Legend:
[1] = in vitro; conditions: human
Procedure: (§1) The concentration was calculated using the peak area ratio of analyte and internal […]
(§2) The results were calculated by the following equations:
(§3) % Unbound = 100 *FC / TC, % Bound = 100 * (1-FC / TC)
(§4) % Recovery = 100 * (FC + TC) / T0
(§5) TC = Total compound concentration as determined by the calculated concentration on the retentate side of the membrane
(§6) FC = Free compound concentration as determined by the calculated concentration on the dialysate side of the membrane […]
(§7) Equation of first order kinetics: […]
(§8) 8. Equilibrium dialysis assay. Binding with plasma protein and recovery rate of NHWD-870 were performed with human, CD-1 mouse and SD rat plasma as […]
(§9) described 2. […] The concentration was […]
(§10) calculated using the peak area ratio of analyte and internal standard. The results were calculated by the following equations: % Unbound = 100 *FC / TC, % Bound = 100 * (1-FC / TC); % Recovery = 100 * (FC + TC) / T0; TC = Total compound concentration as determined by the calculated concentration on the retentate side of the membrane; FC = Free compound concentration as determined by the (1 picture or pasted object on this page, not shown here) […]
(§11) calculated concentration on the dialysate side of the membrane; T0 = To t a l compound concentration as determined before dialysis. […]
(§12) 10. hERG channel assay. […]
(§13) HEK293 cell line stably

[2] = in vitro; conditions: CD-1, mouse
Procedure: as §1, §2, §3, §4, §5, §6, §7, §8, §9, §10, §11, §12, §13

[3] = in vitro; conditions: SD, rat
Procedure: as §1, §2, §3, §4, §5, §6, §7, §8, §9, §10, §11, §12, §13

[4] = system: TAMs; assay: Ki67 FACS of TAMs induced by CSF1; format: cell-based, mouse; conditions: CSF1 treatment
Procedure: Flow cytometry analyses were performed using antibodies listed in Supplementary Table 8. For cell surface markers, mouse TAM suspensions were stained with mouse APC-CD45, FITC-CD11b, PE-F4/80 or APC-F4/80, CD68, and PE-CD206 antibodies for 15 min on ice. For Ki67 staining, cells were fixed in 4% paraformaldehyde and stained with FITC-Ki67. Isotype matching antibody served as the negative control. Flow cytometry was performed on a FACSCalibur (BD Biosciences). Data were analyzed with BD CellQuest Pro software version 5.1.
Supplementary Figure 14. NHWD-870 and BRD4 deletion partially inhibite d prolifera tion of TAMs […]
(a) CD45+CD11b+F4/80 + TAMs in the orthotopic B16 melanoma model were harvested from tumors. Shown are representative FACS plots of TAMs. (b,c) Representative FACS plots (b) and quantification (c) of Ki67+ macrophages treated with 50 ng/ml CSF1, and DMSO or 25 or 50 nM NHWD-870. […]
TAMs induced by CSF1. (a-c) CD11b+F4/80+ macrophages in the orthotopic B16F10 melanoma model were harvested from tumor tissues. Shown are representative CD45+, CD11b+, F4/80+ FACS plots (a) and quantification of the percentage of Ki67+ cells after treatment with DMSO or NHWD-870 dependent on CSF1 stimulation (b,c). (d-g) FACS plots and quantification of the percentage of Ki67+ cells after CRISPR/Cas9-mediated BRD4 knockout (d,e) and c-MYC knockout (f,g) in CD11b+F4/80+ macrophages. CSF1 is added at the indicated concentration.
Please also see response to comment # 4 about our 2D assays, in which we used colony number to quantify the number of TAMs.
NHWD-870 treatment and the main differences are colony size.
6. For comparison purposes, it would be a good idea to compare the direct effect of NHWD-870 on in […]
marrow derived macrophage proliferation and gene expression in vitro). […]

[5] = system: PI3K/AKT1 and ERK phosphorylation; assay: Western blot of p-PI3K, p-AKT1 and p-ERK in TAMs; format: cell-based, mouse
Procedure: Supplementary Figure 13. NHWD-870 inhibited CSF1/CSF1R signaling pathw ay to reduce TAM […]
TA M s ( 2 ×10^5 cells) (treated with or without 10 ng/ml CSF1 and 100 nM NHWD-870 for 48 h) were seeded into the 6-well bottom chamber, in the presence or absence of A2780 cells (pre-treated with or without 100 nM NHWD-870 for 48 h) seeded into the top chamber (transwell size: 0.4μm). Shown are schematics of the experiment and representative western blot analysis of the indicated proteins (a), and quantification of the relative levels of p-PI3K, p-AKT1 and p-ERK over their respective total protein (b). Data are presented as mean ± SEM from 3 independent experiments. p values were calculated using two-tailed, unpaired t tests. n.s, no significant; **, p<0.01; ***, p<0.001. Source data are provided as a Source Data file. […]
4. Protein extraction and w estern blot anal ysis. Freshly dissected unfixed tissue was homogenized in lysis buffer. The lysates were centrifuged at 13,000g for 10 minutes at 4°C. Supernatants were collected and determined with a Bradford Protein Assay kit (Bio-Rad, Hercules, CA). The cell lysates were subjected to SDS-PAGE followed by immunoblotting (Immobilon P; Millipore, Milford, MA) with specific antibodies followed by detection using an enhanced chemilumine scence kit (Amersham Life Science, Arlington Heights, IL). […]

[6] = system: TAMs; assay: Transwell co-culture of pretreated A2780 cells and TAMs with CSF1 or anti-CSF1R antibodies; format: cell-based, mouse; conditions: 10 ng/ml CSF1
Procedure: (§14) Fig. 6 CSF1/CSF1R signaling is critical for the tumor inhibitory effects of NHWD-870 and CSF1 induced ovarian cancer growth depends on macrophages. a Number of TAMs after treatment with the indicated concentration of CSF1 for 48 h. Data are presented as mean ± SEM from three independent experiments. b–d Schematics of the experiments (b). A2780 cells (pre-treated with DMSO or 100 nM NHWD-870 for 48 h) were seeded into the top chamber (transwell size: 0.4 μm), and TAMs (Mac, 40,000 cells per 24-well) in medium with PBS or 10 ng/ml CSF1 (c), or 50 ng/ml IgG or anti-CSF1R antibodies (d), were seeded into the bottom chamber. Shown are quantification of TAMs (c, d). Data are presented as mean ± SEM from three independent experiments. e Representative western blot analysis of A2780 cells stably transfected with CSF1 or empty vector (EV). Selected from three independent experiments. f Schematics of the animal experiments using an orthotopic mouse OC model, established by intraperitoneally injecting 1 × 10^6 (g–j) or 2 × 10^6 (k–m) human A2780 cells overexpressing CSF1 or control into female recipient nude mice. Mice were then treated with/without liposomal clodronate (LC) for 45 days (g–j) or treated with/without NHWD-870 (PO, QD, 3 mg/kg) for 37 days (k–m). g Increased mouse body weight was measured at the indicated time points (day 0-45 after LC treatment). h–j Net tumor weight (h), ascitic fluid volumes (i) tumor implantations in peritoneum, omentum and pevic cavity (j) were measured at day 45 from LC treatment. k–m Net tumor weight (k), ascitic fluid volumes (l) tumor implantations in peritoneum, omentum and pevic cavity (m) were measured at day 37 after NHWD-870 treatment. For g–m, data are presented as mean ± SEM from five different mice. p values were calculated using two-tailed, unpaired t tests in this figure. n.s, not significant; *p < 0.05; **p < 0.01; and ***p < 0.001. Source data are provided as a Source Data file.
CD45^+CD11b^+F4/80^+ TAMs were isolated from peritoneal metastasis of A2780 tumor-bearing mice and cultured in RPMI-1640 supplemented with 10% FBS, 1% penicillin/streptomycin, and 0–50 ng/ml CSF1 (R&D Systems) as indicated according to standard protocols. In the cancer cell-macrophage co-culture experiments, CSF1 was not added. In the transwell (Corning, pore size, 0.4 μm) co-culture experiments, tumor cells were placed into the upper chamber, and TAMs were seeded into the lower chamber.

[7] = system: TAMs; assay: Number of TAMs after treatment with CSF1; format: cell-based, mouse
Procedure: as §14, with “file. […]” for “file.”

[8] = CSF1 treatment, individual replicates, Ctrl about 1

CC(=O)CC(c1ccccc1)c1c(O)c2ccccc2oc1=O (stereo not drawn) [Warfarin, reference compound]
recovery [1]: 90.2%
recovery [2]: 99.2%
recovery [3]: 86.8%

B1: CSF1: macrophage colony-stimulating factor, purchased from R&D Systems (protein, UniProt P09603 33-554, looked up)
Macrophage colony-stimulating …: EEVSEYCSHMIGSGHLQSLQRLIDSQMETSCQITFEFVDQEQLKDPVCYLKKAFLLVQDIMEDTMRFRDNTPNAIAIVQLQELSLRLKSCFTKDYEEHDKACVRTFYETPLQLLEKVKNVFNETKNLLDKDWNIFSKNCNNSFAECSSQDVVTKPDCNCLYPKAIPSSDPASVSPHQPLAPSMAPVAGLTWEDSEGTEGSSLLPGEQPLHTVDPGSAKQRPPRSTCQSFEPPETPVVKDSTIGGSPQPRPSVGAFNPGMEDILDSAMGTNWVPEEASGEASEIPVPQGTELSPSRPGGGSMQTEPARPSNFLSASSPLPASAKGQQPADVTGTALPRVGPVRPTGQDWNHTPQKTDHPSALLRDPPEPGSPRISSLRPQGLSNPSTLSAQPQLSRSHSSGSVLPLGELEGRRSTRDRRSPAEPEGGPASEGAARPLPRFNSVPLTDTGHERQSEGSFSPQLQESVFHLLVPSVILVLLAVGGLLFYRWRRRSHQEPQRADSPLEQPEGSPLTQDDRQVELPV
fold induction of TAM proliferation [4]: > 10 fold
PI3K/AKT1 and ERK phosphorylation in TAMs ([5]; 10 ng/ml CSF1): induced PI3K/AKT1 and ERK phosphorylation
p-AKT1 (Sup Fig.13b quantification) [5, 8]: 7.5 and 6.3 and 5.51
p-ERK (Sup Fig.13b quantification) [5, 8]: 3.68 and 4.51 and 5.3
p-PI3K (Sup Fig.13b quantification) [5, 8]: 3.62 and 4.72 and 3.2
rescue of TAM proliferation in co-culture with NHWD-870 pretreated A2780 cells [6]: partially rescue the inhibitory effects of NHWD-870
proliferation of TAMs ([7]; 48 h): increased proliferation of TAMs in a dose-dependent manner
Number of TAMs (Fig.6a) ([7]; CSF1 10): 15.5 and 19.7 and 20.1
Number of TAMs (Fig.6a) ([7]; CSF1 50): 45.6 and 59.6 and 67.2

From paper PMC7156724, “Potent BRD4 inhibitor suppresses cancer cell-macrophage interaction” (Nature Communications, 2020)
